Experimental findings from paper PMC7160150, “Transcriptional repression of GIF1 by the KIX-PPD-MYC repressor complex controls seed size in Arabidopsis” are described below.

Series [1] addresses T1, MBP-MYC3 (Arabidopsis thaliana (Col-0), UniProt Q9FIP9 1-592). As to the kind of experiment: EMSA; EMSA kit (Thermo), room temperature, 20 min; binding buffer not stated (protein extraction buffer: 50 mM HEPES pH 7.5, 150 mM NaCl, 1 mM EGTA, 1% Triton X-100). The settings on record: protein: recombinant; tags: MBP; chain copies: 2; label: 5'-biotin.
In series [2] the target is T2, MBP-MYC4 (Arabidopsis thaliana (Col-0), UniProt O49687 1-589). Described as above. The following applies: protein: recombinant; tags: MBP; chain copies: 2; label: 5'-biotin.
T2 sequence (O49687 whole entry): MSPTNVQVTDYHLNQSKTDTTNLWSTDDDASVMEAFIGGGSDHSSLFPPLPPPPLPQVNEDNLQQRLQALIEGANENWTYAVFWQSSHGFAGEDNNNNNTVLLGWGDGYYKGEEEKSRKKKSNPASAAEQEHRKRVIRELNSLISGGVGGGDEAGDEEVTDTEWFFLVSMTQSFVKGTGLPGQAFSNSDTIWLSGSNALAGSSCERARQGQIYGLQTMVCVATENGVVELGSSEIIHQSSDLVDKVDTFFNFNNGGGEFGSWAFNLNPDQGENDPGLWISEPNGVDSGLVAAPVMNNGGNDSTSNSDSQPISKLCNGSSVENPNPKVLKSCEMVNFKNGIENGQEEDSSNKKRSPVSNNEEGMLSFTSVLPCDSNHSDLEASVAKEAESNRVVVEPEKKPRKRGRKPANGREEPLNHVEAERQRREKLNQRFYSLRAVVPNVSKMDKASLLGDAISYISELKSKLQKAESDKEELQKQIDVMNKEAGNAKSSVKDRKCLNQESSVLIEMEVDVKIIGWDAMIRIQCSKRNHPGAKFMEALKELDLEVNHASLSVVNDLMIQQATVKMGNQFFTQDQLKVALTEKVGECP
Series [3] addresses T1, MBP-MYC3. As to the kind of experiment: competition; competes with biotin probe A; EMSA kit (Thermo), room temperature, 20 min; binding buffer not stated (protein extraction buffer: 50 mM HEPES pH 7.5, 150 mM NaCl, 1 mM EGTA, 1% Triton X-100). The following applies: protein: recombinant; tags: MBP; chain copies: 2. For orientation: In EMSA bound probe runs differently from free probe, usually more slowly.

The target of series [4] is T2, MBP-MYC4. The series is described as above. The settings on record: protein: recombinant; tags: MBP; chain copies: 2.

T1 sequence (Q9FIP9 whole entry): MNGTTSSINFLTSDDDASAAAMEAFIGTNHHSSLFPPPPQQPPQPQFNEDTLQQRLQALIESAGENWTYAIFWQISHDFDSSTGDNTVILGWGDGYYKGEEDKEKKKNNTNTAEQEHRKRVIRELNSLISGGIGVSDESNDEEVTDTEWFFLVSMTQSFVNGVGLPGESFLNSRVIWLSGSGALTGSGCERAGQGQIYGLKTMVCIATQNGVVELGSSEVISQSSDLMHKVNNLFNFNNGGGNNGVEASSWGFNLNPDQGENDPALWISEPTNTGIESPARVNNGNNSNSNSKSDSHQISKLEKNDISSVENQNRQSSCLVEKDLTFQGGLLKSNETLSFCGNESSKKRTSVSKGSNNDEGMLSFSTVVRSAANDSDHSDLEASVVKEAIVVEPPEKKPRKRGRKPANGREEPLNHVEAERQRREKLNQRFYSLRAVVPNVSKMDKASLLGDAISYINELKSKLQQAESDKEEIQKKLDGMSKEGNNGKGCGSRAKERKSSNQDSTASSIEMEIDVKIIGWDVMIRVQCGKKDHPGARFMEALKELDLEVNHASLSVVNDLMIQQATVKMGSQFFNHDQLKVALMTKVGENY

B1: probe A (dsDNA)
DNA 1: TAAAGTATGACTCGTCACGTGACCTCCTCTTCTTCGC
DNA 2: GCGAAGAAGAGGAGGTCACGTGACGAGTCATACTTTA
In the case of B1, the binding result with MBP-MYC3 [1] and with MBP-MYC4 [2] was “binds” each time.

B2: unlabelled probe A (dsDNA)
DNA 1: B1 DNA 1
DNA 2: B1 DNA 2
With B2, the binding result with MBP-MYC3 [3] and with MBP-MYC4 [4] was “binds” throughout.

B3: probe A-m (dsDNA)
DNA 1: TAAAGTATGACTCGTAGCCGTACCTCCTCTTCTTCGC
DNA 2: GCGAAGAAGAGGAGGTACGGCTACGAGTCATACTTTA
B3: the binding result with MBP-MYC3 [1] and with MBP-MYC4 [2] was “no binding” in each case.
